Test results from PMC2734569, “Functional mapping of the fission yeast DNA polymerase δ B-subunit Cdc1 by site-directed and random pentapeptide insertion mutagenesis” (BMC Molecular Biology, 2009).

Tests used:
Experiment in all cases: two-hybrid; LexA-Cdc1 bait (pBTM116 or pBTM116BN) with Gal4-Pol3 prey and co-expressed c-myc-tagged Cdc27 (pAA-Cdc27) in S. cerevisiae CTY10-5d; ONPG liquid culture beta-galactosidase assay, mean of triplicates, as percent of wild-type Cdc1
Conditions in all cases: partners not purified
Cdc1-J8 = molecular target: T1, Cdc1-J8 (Schizosaccharomyces pombe, UniProt P87324 1-462, Lys-GlyValProLeuLys-Pro)
T1 construct: Cdc1, S. pombe, with a pentapeptide inserted after residue 83; also called J19; source: yeast two-hybrid fusion, in S. cerevisiae CTY10-5d
T1 sequence (looked up): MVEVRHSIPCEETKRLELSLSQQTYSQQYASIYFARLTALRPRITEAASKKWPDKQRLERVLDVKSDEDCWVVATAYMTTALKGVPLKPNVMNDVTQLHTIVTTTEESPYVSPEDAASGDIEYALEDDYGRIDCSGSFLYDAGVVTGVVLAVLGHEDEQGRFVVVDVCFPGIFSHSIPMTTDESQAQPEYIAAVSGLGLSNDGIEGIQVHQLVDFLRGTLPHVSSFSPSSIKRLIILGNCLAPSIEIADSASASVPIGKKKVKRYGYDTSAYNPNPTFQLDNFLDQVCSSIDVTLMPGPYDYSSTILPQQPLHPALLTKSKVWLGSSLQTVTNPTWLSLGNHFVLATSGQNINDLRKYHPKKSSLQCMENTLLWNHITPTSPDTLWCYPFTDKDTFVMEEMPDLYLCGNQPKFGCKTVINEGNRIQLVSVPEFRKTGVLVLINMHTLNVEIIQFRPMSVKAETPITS

Cdc1-J9 = molecular target: T2, Cdc1-J9 (Schizosaccharomyces pombe, UniProt P87324 1-462, Met-ArgGlyThrProMet-Thr)
T2 construct: Cdc1, S. pombe, with a pentapeptide inserted after residue 174; source: yeast two-hybrid fusion, in S. cerevisiae CTY10-5d
T2 sequence (looked up): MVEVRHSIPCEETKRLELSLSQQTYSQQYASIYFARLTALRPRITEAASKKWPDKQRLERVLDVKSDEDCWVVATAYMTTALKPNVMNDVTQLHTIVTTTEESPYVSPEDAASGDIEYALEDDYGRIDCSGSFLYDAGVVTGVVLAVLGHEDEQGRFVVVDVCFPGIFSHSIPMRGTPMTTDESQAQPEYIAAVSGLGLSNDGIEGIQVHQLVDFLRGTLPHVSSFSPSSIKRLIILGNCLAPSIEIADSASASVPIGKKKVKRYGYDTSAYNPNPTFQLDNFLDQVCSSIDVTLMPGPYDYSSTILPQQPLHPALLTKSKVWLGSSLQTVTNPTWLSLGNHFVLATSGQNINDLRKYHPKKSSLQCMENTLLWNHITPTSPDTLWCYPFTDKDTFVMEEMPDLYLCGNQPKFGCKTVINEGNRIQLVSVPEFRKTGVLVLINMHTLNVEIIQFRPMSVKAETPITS

Cdc1-A10 = molecular target: T3, Cdc1-A10 (Schizosaccharomyces pombe, UniProt P87324 1-462, Asn328Ala | Pro329Ala)
T3 construct: Cdc1, S. pombe, double point mutant (A5 and A6 combined); source: yeast two-hybrid fusion, in S. cerevisiae CTY10-5d
T3 sequence (looked up): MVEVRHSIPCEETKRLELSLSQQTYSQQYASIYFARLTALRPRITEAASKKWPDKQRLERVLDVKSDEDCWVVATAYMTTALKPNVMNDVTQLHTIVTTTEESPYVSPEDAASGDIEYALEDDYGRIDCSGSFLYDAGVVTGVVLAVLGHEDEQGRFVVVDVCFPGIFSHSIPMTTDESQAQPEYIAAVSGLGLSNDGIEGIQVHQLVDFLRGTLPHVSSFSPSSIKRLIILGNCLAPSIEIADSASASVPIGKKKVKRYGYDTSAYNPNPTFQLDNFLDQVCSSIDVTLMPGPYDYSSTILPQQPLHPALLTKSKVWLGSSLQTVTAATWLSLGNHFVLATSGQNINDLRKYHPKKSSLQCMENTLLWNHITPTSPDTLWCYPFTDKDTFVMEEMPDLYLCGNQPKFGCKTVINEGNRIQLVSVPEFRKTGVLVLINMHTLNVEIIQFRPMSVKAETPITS

Cdc1-E4 = molecular target: T4, Cdc1-E4 (Schizosaccharomyces pombe, UniProt P87324 1-462, Cys-GlyValProProCys-Glu)
T4 construct: Cdc1, S. pombe, with a pentapeptide inserted after residue 10; source: yeast two-hybrid fusion, in S. cerevisiae CTY10-5d
T4 sequence (looked up): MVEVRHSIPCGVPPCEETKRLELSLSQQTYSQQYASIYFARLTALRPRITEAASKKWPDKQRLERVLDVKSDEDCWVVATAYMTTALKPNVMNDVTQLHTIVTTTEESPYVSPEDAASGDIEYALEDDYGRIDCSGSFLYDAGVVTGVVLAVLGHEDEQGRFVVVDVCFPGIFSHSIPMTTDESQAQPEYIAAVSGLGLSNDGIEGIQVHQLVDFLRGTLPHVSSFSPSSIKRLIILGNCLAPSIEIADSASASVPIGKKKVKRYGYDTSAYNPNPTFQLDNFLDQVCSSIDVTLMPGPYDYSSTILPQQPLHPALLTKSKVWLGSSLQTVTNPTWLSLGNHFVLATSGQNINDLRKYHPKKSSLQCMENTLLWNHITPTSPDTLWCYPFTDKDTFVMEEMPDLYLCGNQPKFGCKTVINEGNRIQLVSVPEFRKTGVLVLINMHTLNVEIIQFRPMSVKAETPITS

two-hybrid beta-galactosidase activity, % of wild-type Cdc1 (Cdc1-J8): < 1% | two-hybrid beta-galactosidase activity, % of wild-type Cdc1 (Cdc1-J9): 91% | two-hybrid beta-galactosidase activity, % of wild-type Cdc1 (Cdc1-A10): < 1% | two-hybrid beta-galactosidase activity, % of wild-type Cdc1 (Cdc1-E4): 16%
B1: Pol3 (fission yeast DNA polymerase delta catalytic subunit) (natural protein, Schizosaccharomyces pombe, UniProt P30316 1-1086, looked up)
chain: MTDRSSNEGVVLNKENYPFPRRNGSIHGEITDVKRRRLSERNGYGDKKGSSSKEKTSSFEDELAEYASQLDQDEIKSSKDQQWQRPALPAINPEKDDIYFQQIDSEEFTEGSVPSIRLFGVTDNGNSILVHVVGFLPYFYVKAPVGFRPEMLERFTQDLDATCNGGVIDHCIIEMKENLYGFQGNEKSPFIKIFTTNPRILSRARNVFERGEFNFEELFPVGVGVTTFESNTQYLLRFMIDCDVVGMNWIHLPASKYQFRYQNRVSNCQIEAWINYKDLISLPAEGQWSKMAPLRIMSFDIECAGRKGVFPDPSIDPVIQIASIVTQYGDSTPFVRNVFCVDTCSQIVGTQVYEFQNQAEMLSSWSKFVRDVDPDVLIGYNICNFDIPYLLDRAKSLRIHNFPLLGRIHNFFSVAKETTFSSKAYGTRESKTTSIPGRLQLDMLQVMQRDFKLRSYSLNAVCSQFLGEQKEDVHYSIITDLQNGTADSRRRLAIYCLKDAYLPQRLMDKLMCFVNYTEMARVTGVPFNFLLARGQQIKVISQLFRKALQHDLVVPNIRVNGTDEQYEGATVIEPIKGYYDTPIATLDFSSLYPSIMQAHNLCYTTLLDSNTAELLKLKQDVDYSVTPNGDYFVKPHVRKGLLPIILADLLNARKKAKADLKKETDPFKKAVLDGRQLALKVSANSVYGFTGATNGRLPCLAISSSVTSYGRQMIEKTKDVVEKRYRIENGYSHDAVVIYGDTDSVMVKFGVKTLPEAMKLGEEAANYVSDQFPNPIKLEFEKVYFPYLLISKKRYAGLFWTRTDTYDKMDSKGIETVRRDNCPLVSYVIDTALRKMLIDQDVEGAQLFTKKVISDLLQNKIDMSQLVITKALSKTDYAAKMAHVELAERMRKRDAGSAPAIGDRVAYVIIKGAQGDQFYMRSEDPIYVLENNIPIDAKYYLENQLSKPLLRIFEPILGEKASSLLHGDHTRTISMAAPSVGGIMKFAVKVETCLGCKAPIKKGKTALCENCLNRSAELYQRQVAQVNDLEVRFARLWTQCQRCQGSMHQDVICTSRDCPIFYMRIAEHKKLQQSVDLLKRFDEMSW
notes: DNA polymerase delta catalytic subunit Pol3, S. pombe; prey plasmid named pACT-Pol3 in the results and pGAD2F-Pol3 in the methods; also called Gal4-Pol3; pACT-Pol3; source: yeast two-hybrid fusion, in S. cerevisiae CTY10-5d
